Values of other authors, collected in paper PMC8535836.
pKd: −log10 of the molar value.

Target: Neuroplastin Np65 Ig1 (Rattus norvegicus) (UniProt P97546)
Assay: Surface Plasmon Resonance

pKd: 6.28
Substance: Neuroplastin Np65 Ig1 (from UniProt P97546)
